Test [1] deals with T1, S protein of the SARS-CoV-2 BA.2.75 strain on pseudo-virus (SARS-CoV-2 BA.2.75 strain). As to the kind of experiment: cell-based or functional assay.
For test [2], the target named is T2, S protein of the SARS-CoV-2 XBB strain on pseudo-virus (SARS-CoV-2 XBB strain). Nature of the test: cell-based or functional assay.
Test [3] addresses T3, S protein of the SARS-CoV-2 BA.4/5 strains on pseudo-virus (SARS-CoV-2 BA.4/5 strain). As to the kind of experiment: cell-based or functional assay.
The target of test [4] is T4, S protein of the SARS-CoV-2 BQ.1 strain on pseudo-virus (SARS-CoV-2 BQ.1 strain). Nature of the test: cell-based or functional assay.
Test [5] concerns the target T5, S protein of the SARS-CoV-2 BF.7 strain on pseudo-virus (SARS-CoV-2 BF.7 strain). Nature of the test: cell-based or functional assay.
The target of test [6] is T6, S protein of the SARS-CoV-2 XBB.1.5 strain on pseudo-virus (SARS-CoV-2 XBB.1.5 strain). Nature of the test: cell-based or functional assay.
Test [7] deals with S protein of the SARS-CoV-2 XBB.1.16 strain on pseudo-virus (SARS-CoV-2 XBB.1.16 strain). Nature of the test: cell-based or functional assay.
For test [8], the target named is S protein of the SARS-CoV-2 BA.3 strain on pseudo-virus (SARS-CoV-2 BA.3 strain). Nature of the test: cell-based or functional assay.
Test [9] deals with T7, S protein of the SARS-CoV-2 BA.1 strain on pseudo-virus (SARS-CoV-2 BA.1 strain). As to the kind of experiment: cell-based or functional assay.
Test [10] addresses S protein of the SARS-CoV-2 BA.2 strain on pseudo-virus (SARS-CoV-2 BA.2 strain). As to the kind of experiment: cell-based or functional assay.
For test [11], the target named is S protein of the SARS-CoV-2 BA.1.1 strain on pseudo-virus (SARS-CoV-2 BA.1.1 strain). As to the kind of experiment: cell-based or functional assay.
Test [12] deals with T8, S protein of the SARS-CoV-2 BQ.1.1 strain on pseudo-virus (SARS-CoV-2 BQ.1.1 strain). Nature of the test: cell-based or functional assay.
Test [13] concerns the target T9, RBD of the S protein of the BA.1.1 strain (SARS-CoV-2 BA.1.1 strain).
T9 construct: domain: RBD; also called BA.1.1 RBD
As to the kind of experiment: ELISA on plate-coated RBD (1 µg/mL), HRP anti-human Fc detection, OD450.

Test [14] has as its target T10, SARS-CoV-2 (BA.5) Spike RBD (SARS-CoV-2 BA.5 strain).
T10 construct: domain: RBD; also called BA.5 RBD
The description is as above.

For test [15], the target named is T1, S protein of the SARS-CoV-2 BA.2.75 …. As to the kind of experiment: cell-based or functional assay. This is another data set of the same source.
The target in test [16] is T2, S protein of the SARS-CoV-2 XBB strain …. As to the kind of experiment: cell-based or functional assay. The source holds these as a separate data set.
The target in test [17] is T3, S protein of the SARS-CoV-2 BA.4/5 …. Nature of the test: cell-based or functional assay. This is another data set of the same source.
Test [18] has as its target T4, S protein of the SARS-CoV-2 BQ.1 strain …. Nature of the test: cell-based or functional assay. This is another data set of the same source.
The target in test [19] is S protein of the SARS-CoV-2 Delta strain on pseudo-virus (SARS-CoV-2 Delta strain). As to the kind of experiment: cell-based or functional assay.
Test [20] has as its target T5, S protein of the SARS-CoV-2 BF.7 strain …. As to the kind of experiment: cell-based or functional assay. This is another data set of the same source.
For test [21], the target named is T6, S protein of the SARS-CoV-2 XBB.1.5 …. Nature of the test: cell-based or functional assay. The source holds these as a separate data set.
The target of test [22] is T7, S protein of the SARS-CoV-2 BA.1 strain …. Nature of the test: cell-based or functional assay. This is another data set of the same source.
Test [23] addresses T8, S protein of the SARS-CoV-2 BQ.1.1 …. Nature of the test: cell-based or functional assay. This is another data set of the same source.
The target in test [24] is T11, RBD of the S protein of the BA.2.12.1 strain (SARS-CoV-2 BA.2.12.1 strain).
T11 construct: domain: RBD; also called BA.2.12.1 RBD
As to the kind of experiment: ELISA on plate-coated RBD (1 µg/mL), HRP anti-human Fc detection, OD450. (ELISA stands for enzyme-linked immunosorbent assay.)

Bounds are passed on as bounds.

What is called EC50 is the concentration at which the effect is half-maximal.

B1: monoclonal antibody CoV56 (antibody, V domains shown)
VH: EVQLVESGGGVVQPGGSLRLSCAVSGFTFDDYAMHWVRQAPGKGLDWVSLISGDGSYTYYADSVKGRFTISRDSSKNSLYLQMNSLRTEDTALYYCAKAQTPTLWWLQDAFDIWGQGTMVTVSS
VL: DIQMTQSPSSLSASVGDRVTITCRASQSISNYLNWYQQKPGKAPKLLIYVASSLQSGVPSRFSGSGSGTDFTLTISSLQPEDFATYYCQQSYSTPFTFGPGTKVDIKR
notes: also called monoclonal antibody 56; 56IgG
Take B1: the “Neutralization Effects (IC50) against SARS-CoV-2 pseudo-viruses” value (“Neutralization Effects (IC50)” for short) in [1] was 58.8 µg/mL; in [2], 15.9 µg/mL; in test [3] it was 7.53 µg/mL; in test [4], 19.6 µg/mL; in [5], 11.7 µg/mL; in test [6], 11.8 µg/mL. In addition, the “Neutralization Effects (IC50)” value in test [7] stood at 21.7 µg/mL; in [8] it was 18.5 µg/mL; in test [9], 14.8 µg/mL; in test [10] it was 8.32 µg/mL; in [11], 10.8 µg/mL; in test [12], 15.9 µg/mL. In addition, the EC50 in test [13] turned out to be 0.0454 nM; in [14] it was 0.167 nM; in [24], 0.0839 nM. Further, the “Neutralization activity (IC50) against pseudo-virus” value (shortened to “Neutralization activity (IC50)”) in test [15], in [16], in [17], in test [18], in [19] and in test [20] was greater than 2 µg/mL throughout. Besides, the “Neutralization activity (IC50)” value in test [21], in [22] and in test [23] was greater than 2 µg/mL each time.

B2: monoclonal antibody L4.65 (antibody, V domains shown)
VH: QITLKESGPTLVKPTQTLTLTCTFSGFSLSTSGVGVAWIRQPPGKALEWLALIYWDNDKRSSPSLNNRLTITKDTSKNQVVLTMTNMDPEDTATYYCAHFFSHYDSSNYYYGSWFDPWGQGTLVTVSS
VL: EIVLTQSPGTLSLSPGERATLSCRASQSFDSRYLGWYQQKSGQAPRLLIYGASSRATGIPDRFSGSGSGTDFTLTISRLEPEDFAVYYCQQFGDSPFTFGQGTKLEIKR
notes: also called monoclonal antibody 65; 65IgG
Consider B2, for which the “Neutralization Effects (IC50)” value in test [1] came to 0.00194 µg/mL; in test [2], 0.00335 µg/mL; in test [3] it was 0.000377 µg/mL; in test [4], 2.09 µg/mL; in test [5], 0.000446 µg/mL; in test [6], 0.0137 µg/mL. Also, the “Neutralization Effects (IC50)” value in [7] turned out to be 0.0103 µg/mL; in [8], 0.00044 µg/mL; in test [9] it was 0.000394 µg/mL; in test [10], 0.00039 µg/mL; in test [11], 0.00028 µg/mL; in test [12], 4.58 µg/mL. Besides, the concentration for a half-maximal effect (EC50) in [13] amounted to 0.00592 nM; in test [14] it was 0.105 nM; in test [24], 0.0641 nM. For the same molecule, the “Neutralization activity (IC50)” value was 0.0112 µg/mL in [15]; 0.0214 µg/mL in [16]; 0.00138 µg/mL in test [17]; greater than 2 µg/mL in test [18]; 0.00252 µg/mL in test [19]; 0.00212 µg/mL in test [20]. In addition, the “Neutralization activity (IC50)” value is 0.0541 µg/mL in test [21], 0.00135 µg/mL in test [22] and greater than 2 µg/mL in test [23].
